Results on one molecule are retold here after US20090186043A1 (BEN GURION UNIVERSITY OF THE NEGEV RESEARCH AND DEVELOPMENT …, published 2009).

The target of this test is T1, Recombinant Fructose Bisphosphate Aldolase (rFBA), FBA-HAT fusion protein, 33.5 kDa (Streptococcus pneumoniae TIGR4, UniProt P0A4S1 1-293).
T1 construct: Expressed in E. coli BL21(DE3)pLysS and purified on Ni-NTA in 8 M urea; also called rFBA-HAT fusion protein; recombinant FBA; not shown: HAT (histidine) tag from the pHAT expression vector
T1 sequence (looked up): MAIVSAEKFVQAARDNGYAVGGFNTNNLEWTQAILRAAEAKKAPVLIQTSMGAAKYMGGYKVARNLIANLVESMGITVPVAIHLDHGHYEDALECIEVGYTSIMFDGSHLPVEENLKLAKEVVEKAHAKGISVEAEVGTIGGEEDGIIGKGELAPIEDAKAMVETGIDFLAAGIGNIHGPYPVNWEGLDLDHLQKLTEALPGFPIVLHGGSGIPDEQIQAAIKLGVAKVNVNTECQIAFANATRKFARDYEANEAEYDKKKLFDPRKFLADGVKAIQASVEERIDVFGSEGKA
Put plainly: Western blot like overlay: rFBA on nitrocellulose probed with FCRP, rabbit anti-FCRP-KLH serum and anti-rabbit IgG. For orientation: Immunoblotting shows a protein as a band on a membrane.

B1: Flamingo Cadherin receptor derived synthetic peptide (FCRP), 15 amino acids (peptide)
peptide: H-ADSDSDSDLSLEEER-OH
notes: Derived from human Flamingo homolog 1 (Q9NYQ7); also called FC peptide; FC derived synthetic peptide
For B1, the binding result is on record as “binds”.
